B1: SEQ ID NOs: 653/657 (HCVR/LCVR) (antibody, V domains shown)
VH: EVQLVESGGGLVQPGRSLRLSCAASGFTFDDYAMHWVRQAPGKGLEWVSGISWNSGSIGYADSVKGRFTISRDNAKNSLYLQMNSLRAEDTALYYCAKMGPDPAHDYGRKNDAFDIWGQGTMVTVSS
VL: DIVMTQSPSSLSASVGDRVTITCRASQSMSSYLNWYQQKPGKAPKLLIYAASSLQSGVPSRFSGSGSGTDFTLTISSLQPEDFATYYCQQSYSTLTFGGGTKLEIK
B2: SEQ ID NOs: 461/465 (HCVR/LCVR) (antibody, V domains shown)
VH: EVQLVESGAEVKKPGSSVKVSCKASGGTFSSYAISWVRQAPGQGLEWMGGIIPIFGTANYAQKFQGRATITTDESTSTAYMELSSLGSEDTAVYYCARTHSYDNSGQYFDYWGQGTMVTVSS
VL: DIVMTQSPATLSLSPGERATLSCRASQSVSSFLAWYQQKPGQAPRLLIYDASNRATGIPARFSGSGSGTDFTLTISSLEPEDFAVYYCQQRSNWPPRLTFGGGTKVDIK
B3: SEQ ID NOs: 661/665 (HCVR/LCVR) (antibody, V domains shown)
VH: EVQLVESRAEMKKPGESLKISCKGSGYTFTNHWIAWVRQMPGKGLEWMGIIYPGDSDTRYSPSFEGQVTISADKSISTAYLQWSSLKASDTAMYYCARRGYTYGADFYGLDVWGQGTRVTVSS
VL: not shown
B4: SEQ ID NOs: 73/77 (HCVR/LCVR) (antibody, V domains shown)
VH: EVQLVESGGGLVQPGGSLRLSCAASGFTVTSTYMTWVRRAPGKGLEWVSIIYNDDTTYYADSVKDRVTVSRDDSKNTLYLQMNSLRAEDTAIYYCARGGYYYDPSGYYSRSFSFDYWGQGTLVTVSS
VL: NFMLTQPASVSGSPGQSITISCTGSSSDIAPYTFVSWYQQHSGTAPKLIIYDVRNRPSGISDRFSGSRSGNTASLSISGLQAEDEADYYCSAYTTTSTSWVFGGGTKLTVL
B5: SEQ ID NOs: 217/221 (HCVR/LCVR) (antibody, V domains shown)
VH: EVQLVESGGGLVQPGGSLRLSCAASGFTFSSYDMHWVRQTTGKGLQWVSAIGTAGDTYYPGSVKGRFTISRENAKNSLYLQMNSLRAGDTAVYYCARGGDRYPVGYFDLWGRGTLVTVSS
VL: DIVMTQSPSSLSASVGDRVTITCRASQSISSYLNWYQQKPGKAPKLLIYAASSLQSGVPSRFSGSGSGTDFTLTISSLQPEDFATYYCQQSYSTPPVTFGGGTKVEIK
B6: SEQ ID NOs: 557/561 (HCVR/LCVR) (antibody, V domains shown)
VH: EVQLVESGGGVVQPGRSLRLSCAASGFTFSSYAMHWVRQAPGKGLEWVAVISYDGSYKYYADSVKGRFTISRDNSKNTLYLQMNSLTAEDTAVYYCAREGSRQWLVIYFDYWGQGTLVTVSS
VL: AIRMTQSPSSLSASVGDRVTITCRASQSISSYLNWYQQKPGKAPKLLIYAASSLQSGVPSRFSGSGSGTDFTLTISSLQPEDFATYYCQQSYTTFIYTFGQGTKLEIK
B7: SEQ ID NOs: 57/61 (HCVR/LCVR) (antibody, V domains shown)
VH: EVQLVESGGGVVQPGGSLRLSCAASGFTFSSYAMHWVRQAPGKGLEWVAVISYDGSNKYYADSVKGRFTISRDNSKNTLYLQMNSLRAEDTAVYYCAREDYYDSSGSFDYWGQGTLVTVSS
VL: QSVLTQPASVSGSPGQSITISCTGTSSDVGGYNYVSWYQQHPGKAPKLMIYDVSNRPSGVSNRFSGSKSGNTASLTISGLQAEDEADYYCSSYTSSSTRHWVFGGGTKLTVL
B8: 002_P2C4 (antibody, V domains shown)
VH: QVQLVESGAEVKKPGSSVKVSCKASGGTFSSYGINWVRQAPGQGLEWMGGIIPIFGTANYAQKFQGRVTITTDESTSTAYMELSSLRSEDTAVYYCASFGDDSGDEGVRWGQGTLVTVSS
VL: EIVMTQSPATLSLSPGERATLSCRASQSVSSYLAWYQQKPGQAPRLLIYDASNRATGIPARFSGSGSGTDFTLTISSLEPEDFAVYYCQQRSNWPPYTFGQGTKVEIK
B9: SEQ ID NOs: 493/497 (HCVR/LCVR) (antibody, V domains shown)
VH: EVQLVQSGAEVKKPGESLKISCKGSGYSFTSYWIDWVRQMPGKGLEWMGIFYPGDSDTRYSPSFQGQVTISADKSISTAYLQWSSLKASDTAMYYCARHNPDYYDSSGPLDYWGQGTLVTVSS
VL: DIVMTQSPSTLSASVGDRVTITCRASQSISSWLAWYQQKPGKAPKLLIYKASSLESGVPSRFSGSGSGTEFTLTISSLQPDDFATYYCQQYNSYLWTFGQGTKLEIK
B10: 001_P1G11 (antibody, V domains shown)
VH: EVQLVQSGTEVKKPGASVKVSCKASGYTFPGYYIHWVRQAPGQGLEWMGWINPNSGVAKSAQKFQGRVTMTRDSSISTVYLDVTSDDTAVYYCARDLVWATVSGTMDVWGQGTTVTVSS
VL: QSALTQPPSASGSPGQSVTISCTGTSSDIGTYNYVSWYQQHPGKAPKLMIYEVTKRPSGVPDRFSGSKSGNTASLTVSGLQADDEGDYYCSSYVGNNNWVFGGGTKLTVL
B11: SEQ ID NOs: 421/425 (HCVR/LCVR) (antibody, V domains shown)
VH: EVQLVQSGAEVKKPGASVKVSCKASGYTFTSYDINWVRQATGQGLEWMGWMNPNSGNTGYAQKFQGRVTMTRNTSISTAYMELSSLRSEDTAVYYCARVVGSSWYPVDAFDIWGQGTRVTVSS
VL: QSVLTQPASVSGSPGQSITISCTGTSSDVGGYNYVSWYQQHPGKAPKLMIYDVSNRPSGVSNRFSGSKSGNTASLTISGLQAEDEADYYCSSYTSSSTLVVFGGGTKLTVL
B12: SEQ ID NOs: 621/625 (HCVR/LCVR) (antibody, V domains shown)
VH: QVQLVQSGAEVKKPGASVKVSCKVSGYTLTELSMHWVRQAPGKGLEWMGGFDPEDGETIYAQKFQGRVTMTEDTSTDTAYMELSSLRSEDTAVYYCATAYSVDTAMVRGVGYWGQGTLVTVSS
VL: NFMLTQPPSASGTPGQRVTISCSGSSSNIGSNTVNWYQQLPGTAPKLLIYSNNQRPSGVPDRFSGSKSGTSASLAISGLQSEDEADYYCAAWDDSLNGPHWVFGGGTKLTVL

These binders were tested against SARS-CoV-2 receptor binding domain (RBD), amino acids 319-541, octahistidine tag (SARS-CoV-2, UniProt P0DTC2 319-541) (assay: not named there; ELISA in Example 4).
B1: binds. B2: binds. B3: binds. B4: binds. B5: binds. B6: binds. B7: binds. B8: binds. B9: binds. B10: binds. B11: binds. B12: binds.
